Measured values published in PMC10507018, “Structure of human drug transporters OATP1B1 and OATP1B3” (Nature Communications, 2023).

How the values were obtained:
[1] = target: T1, Human OATP1B1 (organic anion transporting polypeptide 1B1) (human, UniProt Q9Y6L6, N-glycosylation sites N134, N516); assay: cryo-EM structure; OATP1B1 in lipid nanodiscs (MSP1D1, brain polar lipids with cholesterol), premixed with 1:1.75 molar excess Fab18, SEC in HBS (25 mM HEPES pH 7.4, 150 mM NaCl), with 0.065 mM E1S; conditions: both partners purified
T1 construct: wild-type human OATP1B1, gene codon-optimised for human cells (GenScript), in pcDNA5 with a cleavable C-terminal YFP-1D4 tag; The tag was removed with 3C protease after nanodisc reconstitution and before Fab18 was added for cryo-EM; also called SLCO1B1; not shown: YFP, C-terminal, cleaved; 1D4, C-terminal, cleaved
T1 sequence (Q9Y6L6 whole entry): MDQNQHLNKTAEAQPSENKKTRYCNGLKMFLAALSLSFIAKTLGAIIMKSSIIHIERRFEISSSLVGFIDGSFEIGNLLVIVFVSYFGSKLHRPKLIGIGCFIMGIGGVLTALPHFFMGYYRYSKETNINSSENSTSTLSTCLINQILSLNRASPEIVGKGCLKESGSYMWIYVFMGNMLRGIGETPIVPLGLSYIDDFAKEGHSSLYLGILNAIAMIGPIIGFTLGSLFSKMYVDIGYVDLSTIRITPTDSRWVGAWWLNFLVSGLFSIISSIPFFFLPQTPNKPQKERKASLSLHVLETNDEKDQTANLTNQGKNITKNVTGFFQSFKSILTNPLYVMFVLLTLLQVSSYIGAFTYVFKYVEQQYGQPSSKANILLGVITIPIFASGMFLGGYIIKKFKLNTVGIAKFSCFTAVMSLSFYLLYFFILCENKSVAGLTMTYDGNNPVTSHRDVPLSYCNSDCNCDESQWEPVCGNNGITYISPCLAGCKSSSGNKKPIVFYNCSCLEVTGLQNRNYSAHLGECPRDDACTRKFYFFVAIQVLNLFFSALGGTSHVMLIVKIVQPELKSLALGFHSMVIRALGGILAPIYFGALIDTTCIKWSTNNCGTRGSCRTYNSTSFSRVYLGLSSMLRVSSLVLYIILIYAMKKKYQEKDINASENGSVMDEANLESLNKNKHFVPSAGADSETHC

[2] = target: T2, Human OATP1B3 (organic anion transporting polypeptide 1B3) (human, UniProt Q9NPD5, N-glycosylation sites N134, N516); assay: cryo-EM structure; OATP1B3 in lipid nanodiscs (MSP1D1, brain polar lipids with cholesterol), premixed with Fab19 at a molar ratio of 1:1, SEC in HBS (25 mM HEPES pH 7.4, 150 mM NaCl), with 0.05 mM atazanavir; conditions: both partners purified
T2 construct: wild-type human OATP1B3, gene codon-optimised for human cells (GenScript), in pcDNA5 with a cleavable C-terminal YFP-1D4 tag; also called SLCO1B3; not shown: YFP, C-terminal, cleaved; 1D4, C-terminal, cleaved
T2 sequence (Q9NPD5 whole entry): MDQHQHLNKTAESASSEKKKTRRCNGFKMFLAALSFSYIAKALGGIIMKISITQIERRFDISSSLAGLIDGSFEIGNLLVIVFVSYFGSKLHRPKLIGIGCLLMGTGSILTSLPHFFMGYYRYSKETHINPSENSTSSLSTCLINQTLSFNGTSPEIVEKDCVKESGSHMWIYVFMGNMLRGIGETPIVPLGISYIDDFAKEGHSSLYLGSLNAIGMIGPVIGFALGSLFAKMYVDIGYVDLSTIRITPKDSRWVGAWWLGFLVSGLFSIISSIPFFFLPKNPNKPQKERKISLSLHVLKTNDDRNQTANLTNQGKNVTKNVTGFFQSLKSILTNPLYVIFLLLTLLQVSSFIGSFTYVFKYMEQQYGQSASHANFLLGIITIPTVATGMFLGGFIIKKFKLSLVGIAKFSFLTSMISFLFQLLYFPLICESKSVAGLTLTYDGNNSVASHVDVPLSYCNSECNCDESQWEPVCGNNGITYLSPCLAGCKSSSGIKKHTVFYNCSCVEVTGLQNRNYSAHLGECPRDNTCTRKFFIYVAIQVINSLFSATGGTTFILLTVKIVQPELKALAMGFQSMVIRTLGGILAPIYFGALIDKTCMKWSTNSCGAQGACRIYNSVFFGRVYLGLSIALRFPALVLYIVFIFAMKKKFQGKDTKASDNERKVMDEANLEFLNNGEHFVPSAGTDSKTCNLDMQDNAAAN

Binder | binding result [1] | binding result [2]
Fab18 (Fab, V domains shown, heavy chain (HC) of Fab18 in PDB 8PHW; selected by phage display from synthetic Fab library E against OATP1B3; light chain (LC) of Fab18 in PDB 8PHW; also called synthetic Fab fragment Fab18; source: E. coli C43 (Pro+), pRH2.2, purified (Protein L, Resource S)) VH: EVQLVESGGGLVQPGGSLRLSCAASGFNFSSSSIHWVRQAPGKGLEWVASISSSSGSTSYADSVKGRFTISADTSKNTAYLQMNSLRAEDTAVYYCARYGWGGPWYYWLRDSRSGIDYWGQGTLVTVSS VL: DIQMTQSPSSLSASVGDRVTITCRASQSVSSAVAWYQQKPGKAPKLLIYSASSLYSGVPSRFSGSRSGTDFTLTISSLQPEDFATYYCQQSSSSLITFGQGTKVEIK | binds | –
Fab19 (Fab, V domains shown, heavy chain (HC) of Fab19 in PDB 8PG0; selected by phage display from synthetic Fab library E against OATP1B3; light chain (LC) of Fab19 in PDB 8PG0; also called synthetic Fab fragment Fab19; source: E. coli C43 (Pro+), pRH2.2, purified (Protein L, Resource S)) VH: EVQLVESGGGLVQPGGSLRLSCAASGFNFSSSSIHWVRQAPGKGLEWVASISSSSGSTSYADSVKGRFTISADTSKNTAYLQMNSLRAEDTAVYYCARYYIKRWWLMSWEDYSMGLDYWGQGTLVTVSS VL: DIQMTQSPSSLSASVGDRVTITCRASQSVSSAVAWYQQKPGKAPKLLIYSASSLYSGVPSRFSGSRSGTDFTLTISSLQPEDFATYYCQQSSSSLITFGQGTKVEIK | – | binds
